Assay results taken from patent US20260274955A1 (JANUX THERAPEUTICS, published 2026).

B1: Phage-599 (peptide)
peptide: YCVGHLPQYMQKCL
B2: Phage-600 (peptide)
peptide: YCDGHLPEYIAKCQ
B3: Phage-601 (peptide)
peptide: YCDGHSLEYIEKCL
B4: Phage-602 (peptide)
peptide: YCLGHSWPYIHKCY
B5: Phage-603 (peptide)
peptide: YCDGHLDEYMLKCL
B6: Phage-604 (peptide)
peptide: YCDGHTPEYMWKCL
B7: Phage-736 (peptide)
peptide: YCDGHTKEYMWKCL
B8: Phage-605 (peptide)
peptide: YCEGHSQQYMQKCL
B9: Phage-709 (peptide)
peptide: YCEGHSQTYMWKCL
B10: Phage-711 (peptide)
peptide: YCEGHSQQYMWKCL
B11: Phage-715 (peptide)
peptide: YCEGHSYQYMQKCL
B12: Phage-622 (peptide)
peptide: YCDGHNWEYMEKCL
B13: Phage-800 (peptide)
peptide: YCDGHLLMYMEKCL
B14: Phage-801 (peptide)
peptide: YCEGHDWMYMEKCL
B15: Phage-802 (peptide)
peptide: YCEGHSQEYKAKCF
B16: Phage-803 (peptide)
peptide: YCDGHVLMYLAKCL
B17: Phage-805 (peptide)
peptide: YCEGHLAAYMYKCL
B18: Phage-806 (peptide)
peptide: YCDGHSTLYMQKCL
B19: Phage-807 (peptide)
peptide: YCDGHTEAYMSKCL
B20: Phage-808 (peptide)
peptide: YCEGHISEYMGKCL
B21: Phage-809 (peptide)
peptide: YCDGHFTWYMAKCL
B22: Phage-810 (peptide)
peptide: YCDGHIAEYRSKCL
B23: Phage-811 (peptide)
peptide: YCEGHLSEYIGKCL
B24: Phage-812 (peptide)
peptide: YCDGHTAQYMWKCL

What follows are binders tested against T1, Anti-CD28 Fab (SEQ ID NOs: 202, 203) (assay: phage ELISA, Fab on plate, CD28 antigen as competitor).
T1 construct: biotinylated and captured on neutravidin coated plates in the phage ELISA
T1 sequence (VH, as listed by the source, chain 1 of 2): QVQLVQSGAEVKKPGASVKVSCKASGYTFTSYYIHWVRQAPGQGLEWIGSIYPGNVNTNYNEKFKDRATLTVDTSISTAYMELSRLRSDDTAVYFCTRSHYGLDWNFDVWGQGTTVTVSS
T1 sequence (VL, as listed by the source, chain 2 of 2): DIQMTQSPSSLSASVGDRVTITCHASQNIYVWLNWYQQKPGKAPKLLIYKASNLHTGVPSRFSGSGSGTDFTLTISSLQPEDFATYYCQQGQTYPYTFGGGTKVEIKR
Method: After panning, phage infected bacteria were plated out and colonies picked into 96 well blocks. Clonal phage was then amplified and separated from bacterial cells via centrifugation.
Clonal phage were harvested as crude supernatants and screened via standard ELISAs. […] Prior to the addition of clonal phage, wells were incubated with blocking buffer and CD28 antigen or blocking buffer alone. Without washing or aspirating, clonal phage supernatants were then added to the wells and incubated for a short time. Wells were then washed followed by detection of bound phage using a horse radish conjugated anti-M13 antibody. Clonal phage of interest were then sent for sequence analysis.
B1 was tested, and the “Anti-CD28 Fab signal in the presence of CD28” value (“Anti-CD28 Fab signal” below) was 0.06. With B2 the “Anti-CD28 Fab signal” value was 0.07. For B3, the “Anti-CD28 Fab signal” value was 0.06. For B4, the “Anti-CD28 Fab signal” value was 0.07. B5 was tested, and the “Anti-CD28 Fab signal” value was 0.06. B6 was tested, and the “Anti-CD28 Fab signal” value was 0.06. For B7, the “Anti-CD28 Fab signal” value was 0.06. In the case of B8, the “Anti-CD28 Fab signal” value is reported as 0.08. With B9 the “Anti-CD28 Fab signal” value was 0.08. With B10 the “Anti-CD28 Fab signal” value was 0.05. B11 was tested, and the “Anti-CD28 Fab signal” value was 0.06. With B12 the “Anti-CD28 Fab signal” value was 0.05.

What follows are binders tested against T1, Anti-CD28 Fab (SEQ ID NOs: 202, 203) (assay: phage ELISA, Fab on plate;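 further: crude clonal phage supernatants added to wells pretreated with blocking buffer with or without CD28 antigen, then bound phage read out via HRP-linked anti-M13 antibody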).
In the case of B1, the “Anti-CD28 Fab (SEQ ID NOs: 202, 203) signal” value is reported as 1.43. B2 was tested, and the “Anti-CD28 Fab (SEQ ID NOs: 202, 203) signal” value was 1.43. For B3, the “Anti-CD28 Fab (SEQ ID NOs: 202, 203) signal” value was 1.43. In the case of B4, the “Anti-CD28 Fab (SEQ ID NOs: 202, 203) signal” value is reported as 1.43. In the case of B5, the “Anti-CD28 Fab (SEQ ID NOs: 202, 203) signal” value is reported as 1.43. For B6, the “Anti-CD28 Fab (SEQ ID NOs: 202, 203) signal” value was 1.43. B7 was tested, and the “Anti-CD28 Fab (SEQ ID NOs: 202, 203) signal” value was 1.1. For B8, the “Anti-CD28 Fab (SEQ ID NOs: 202, 203) signal” value was 1.42. B9 was tested, and the “Anti-CD28 Fab (SEQ ID NOs: 202, 203) signal” value was 1.17. With B10 the “Anti-CD28 Fab (SEQ ID NOs: 202, 203) signal” value was 1.17. With B11 the “Anti-CD28 Fab (SEQ ID NOs: 202, 203) signal” value was 1.16.

What follows are binders tested against Anti-CD28 Fab (SEQ ID NOs: 202, 203) (assay: phage binding ELISA on captured Fab;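 further: clonal phage supernatants added briefly to wells pre-incubated with CD28 antigen or with blocking buffer only, then washed, bound phage read by ELISA using HRP-coupled anti-M13 antibody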).
Target sequence in this assay (VH, as listed by the source, chain 1 of 2): as the sequence (VH, as listed by the source, chain 1 of 2) above
Target sequence in this assay (VL, as listed by the source, chain 2 of 2): as the sequence (VL, as listed by the source, chain 2 of 2) above
Method: Clonal phage were harvested as crude supernatants and screened via standard ELISAs. […] Prior to the addition of clonal phage, wells were incubated with blocking buffer and CD28 antigen or blocking buffer alone. Without washing or aspirating, clonal phage supernatants were then added to the wells and incubated for a short time. Wells were then washed followed by detection of bound phage using a horse radish conjugated anti-M13 antibody.
In the case of B13, the “Anti-CD28 Fab (SEQ ID NOs: 202, 203) signal” value is reported as 0.91. With B14 the “Anti-CD28 Fab (SEQ ID NOs: 202, 203) signal” value was 0.91. With B15 the “Anti-CD28 Fab (SEQ ID NOs: 202, 203) signal” value was 0.9. In the case of B16, the “Anti-CD28 Fab (SEQ ID NOs: 202, 203) signal” value is reported as 0.9. With B17 the “Anti-CD28 Fab (SEQ ID NOs: 202, 203) signal” value was 0.89. With B18 the “Anti-CD28 Fab (SEQ ID NOs: 202, 203) signal” value was 0.88. With B19 the “Anti-CD28 Fab (SEQ ID NOs: 202, 203) signal” value was 0.88. For B20, the “Anti-CD28 Fab (SEQ ID NOs: 202, 203) signal” value was 0.88. For B21, the “Anti-CD28 Fab (SEQ ID NOs: 202, 203) signal” value was 0.87. In the case of B22, the “Anti-CD28 Fab (SEQ ID NOs: 202, 203) signal” value is reported as 0.87. B23 was tested, and the “Anti-CD28 Fab (SEQ ID NOs: 202, 203) signal” value was 0.87. B24 was tested, and the “Anti-CD28 Fab (SEQ ID NOs: 202, 203) signal” value was 0.87.
